For the test, the target named is His6-tagged 13C,15N-H1 (human, UniProt P07305 1-194). The experiment in a line: NMR titration.
Sequence of His6-tagged 13C,15N-H1 (P07305 whole entry): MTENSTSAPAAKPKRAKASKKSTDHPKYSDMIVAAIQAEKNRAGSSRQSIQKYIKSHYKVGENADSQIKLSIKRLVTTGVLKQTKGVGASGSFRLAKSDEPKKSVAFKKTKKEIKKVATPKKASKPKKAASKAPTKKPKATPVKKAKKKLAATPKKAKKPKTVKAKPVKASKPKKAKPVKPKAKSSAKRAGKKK

B1: prothymosin α (unlabeled, wildtype) (natural protein, human, UniProt P06454 1-111, looked up)
chain: MSDAAVDTSSEITTKDLKEKKEVVEEAENGRDAPANGNAENEENGEQEADNEVDEEEEEGGEEEEEEEEGDGEEEDGDEDEEAESATGKRAAEDDEDDDVDTKKQKTDEDD
Regarding B1, the “stoichiometry N” value turned out to be 1.

The stoichiometry N is the number of molecules, sites or subunits per partner or assembly.

(Values after publication PMC6264893 (Nature, 2018).)
